Reference: the RNAGym collection of RNA variant scans (doi:10.7554/elife.90254)

B1: LINE1-mini (parent)
chain: GGCAGAGCUCAACACAGCGUGGCAAAGUGGCUGUGGCUAGACUGCC

Variants of: B1
Assay: self-cleavage, relative activity (ratio to wild type); higher = more cleavage; in vitro, sequencing; the parent is a self-cleaving ribozyme

First: A6G G35C
Second: A6G G35U
The self-cleavage of the first is higher: 0.12 for the first, 0.08 for the second.

First: A6G G35A
Second: A6U A24U
The self-cleavage of the first is lower: 0.05 for the first, 1.6 for the second.

First: A6U A24G
Second: A6U A24C
The self-cleavage of the first is lower: 0.94 for the first, 1.21 for the second.

Going from A6U C46A to A6U C46U, the self-cleavage rises from 0.74 to 0.75.

Compared with A6U C46G, A6G C37U is lower in self-cleavage: 0.41 for the first, 0.03 for the second.

Compared with A6U A16C, A6U A16U is higher in self-cleavage: 0.09 for the first, 0.11 for the second.

Going from A6U A16G to A6U C8G, the self-cleavage rises from 0.14 to 0.15.

Compared with A6U C8A, A6U C8U is higher in self-cleavage: 0.27 for the first, 0.29 for the second.

Going from A6U A14U to A6U A14C, the self-cleavage falls from 0.27 to 0.11.

Compared with A6U A14G, A6G C45G is higher in self-cleavage: 0.1 for the first, 0.18 for the second.

Compared with A6G C45U, A6G C45A is higher in self-cleavage: 0.11 for the first, 0.15 for the second.

First: A6U G17U
Second: A6U G17A
The self-cleavage of the first is higher: 0.26 for the first, 0.11 for the second.

Going from A6U G17C to A6G C42G, the self-cleavage falls from 0.59 to 0.04.

First: A6G C42A
Second: A6G C42U
The self-cleavage of the first is higher: 0.12 for the first, 0.07 for the second.

Going from A6U C45A to A6U C45U, the self-cleavage rises from 0.66 to 1.18.

Going from A6U C45G to A6G U28C, the self-cleavage falls from 0.3 to 0.05.

Compared with A6G U28A, A6G U28G is higher in self-cleavage: 0.05 for the first, 0.09 for the second.

First: A6G G19A
Second: A6G G19C
The self-cleavage of the first is higher: 0.09 for the first, 0.05 for the second.

Going from A6G G19U to A6U G30C, the self-cleavage rises from 0.15 to 1.36.

First: A6U G30U
Second: A6U G30A
The self-cleavage of the first is lower: 1.27 for the first, 1.65 for the second.

Compared with A6U A12U, A6U A12G is lower in self-cleavage: 0.17 for the first, 0.04 for the second.

Compared with A6U A12C, A6G G33U is higher in self-cleavage: 0.04 for the first, 0.07 for the second.

First: A6G G33C
Second: A6G G33A
The self-cleavage of the first is lower: 0.03 for the first, 0.06 for the second.

First: A6U G40C
Second: A6U G40A
The self-cleavage of the first is lower: 0.15 for the first, 0.35 for the second.

Going from A6U G40U to A6G U43C, the self-cleavage falls from 0.3 to 0.09.

Compared with A6G U43A, A6G U43G is lower in self-cleavage: 0.15 for the first, 0 for the second.

Going from A6G U38G to A6G U38C, the self-cleavage rises from 0.01 to 0.07.

Going from A6G U38A to A6U G7U, the self-cleavage rises from 0.06 to 0.14.

First: A6U G7C
Second: A6U G7A
The self-cleavage of the first is lower: 0.19 for the first, 0.26 for the second.

Going from A6U A26C to A6U A26U, the self-cleavage rises from 0.56 to 0.85.

Compared with A6U A26G, A6U C10A is lower in self-cleavage: 0.31 for the first, 0.07 for the second.

First: A6U C10U
Second: A6U C10G
The self-cleavage of the first is higher: 0.12 for the first, 0.06 for the second.

First: A6U G27C
Second: A6U G27U
The self-cleavage of the first is lower: 0.38 for the first, 0.58 for the second.

Going from A6U G27A to A6U, the self-cleavage rises from 0.42 to 0.7.

First: A6U A41G
Second: A6U A41C
The self-cleavage of the first is higher: 2.27 for the first, 0.07 for the second.

First: A6U A41U
Second: A6G G7U
The self-cleavage of the first is higher: 0.09 for the first, 0.05 for the second.

First: A6G G7C
Second: A6G G7A
The self-cleavage of the first is higher: 0.14 for the first, 0.11 for the second.

Going from A6U C23G to A6U C23A, the self-cleavage rises from 0.46 to 0.9.

First: A6U C23U
Second: A6U G21C
The self-cleavage of the first is higher: 0.89 for the first, 0.52 for the second.

Going from A6U G21U to A6U G21A, the self-cleavage rises from 0.76 to 2.16.

First: A6U C37U
Second: A6U C37A
The self-cleavage of the first is lower: 0.07 for the first, 0.08 for the second.

Compared with A6U C37G, A6U C42A is higher in self-cleavage: 0.04 for the first, 0.17 for the second.

Going from A6U C42G to A6U C42U, the self-cleavage rises from 0.05 to 0.42.

First: A6U G35C
Second: A6U G35A
The self-cleavage of the first is higher: 0.16 for the first, 0.12 for the second.

First: A6U G35U
Second: A6U A11G
The self-cleavage of the first is higher: 0.2 for the first, 0.04 for the second.

First: A6U A11U
Second: A6U A11C
The self-cleavage of the first is higher: 0.09 for the first, 0.06 for the second.

First: A6U C15G
Second: A6U C15A
The self-cleavage of the first is lower: 0.07 for the first, 0.16 for the second.

Going from A6U C15U to A6U A39U, the self-cleavage falls from 0.92 to 0.35.

Compared with A6U A39G, A6U A39C is higher in self-cleavage: 0.04 for the first, 0.51 for the second.

First: A6G G21U
Second: A6G G21A
The self-cleavage of the first is lower: 0.13 for the first, 0.23 for the second.

Compared with A6G G21C, A6U G22A is higher in self-cleavage: 0.13 for the first, 0.57 for the second.

First: A6U G22U
Second: A6U G22C
The self-cleavage of the first is higher: 0.79 for the first, 0.37 for the second.

Compared with A6G G17A, A6G G17U is lower in self-cleavage: 0.09 for the first, 0.04 for the second.

A6G G17C and A6G U34C are the same in self-cleavage: 0.09 for the first, 0.09 for the second.

A6G U34G and A6G U34A are the same in self-cleavage: 0.04 for the first, 0.04 for the second.

A6G G40U and A6G G40A are the same in self-cleavage: 0.1 for the first, 0.1 for the second.

Compared with A6G G40C, A6U A25C is higher in self-cleavage: 0.05 for the first, 0.65 for the second.

Going from A6U A25G to A6U A25U, the self-cleavage rises from 0.47 to 0.72.

First: A6G G44A
Second: A6G G44C
The self-cleavage of the first is higher: 0.46 for the first, 0.14 for the second.

Going from A6G G44U to A6G U9A, the self-cleavage falls from 0.13 to 0.12.

First: A6G U9C
Second: A6G U9G
The self-cleavage of the first is lower: 0.02 for the first, 0.17 for the second.

First: A6G G30C
Second: A6G G30A
The self-cleavage of the first is lower: 0.13 for the first, 0.19 for the second.

First: A6G G30U
Second: A6U C31U
The self-cleavage of the first is lower: 0.13 for the first, 0.31 for the second.

Compared with A6U C31A, A6U C31G is lower in self-cleavage: 0.38 for the first, 0.13 for the second.

Compared with A6U G29A, A6U G29C is lower in self-cleavage: 0.79 for the first, 0.34 for the second.

Compared with A6U G29U, A6G G22U is lower in self-cleavage: 0.66 for the first, 0.12 for the second.

First: A6G G22C
Second: A6G G22A
The self-cleavage of the first is lower: 0.07 for the first, 0.11 for the second.

Going from A6G C46U to A6G C46A, the self-cleavage rises from 0.09 to 0.13.

Compared with A6G C46G, A6G U20A is lower in self-cleavage: 0.08 for the first, 0.04 for the second.

First: A6G U20G
Second: A6G U20C
The self-cleavage of the first is higher: 0.13 for the first, 0.1 for the second.

Compared with A6U G36A, A6U G36C is lower in self-cleavage: 0.26 for the first, 0.25 for the second.

First: A6U G36U
Second: A6U G33A
The self-cleavage of the first is lower: 0.08 for the first, 0.1 for the second.

Going from A6U G33C to A6U G33U, the self-cleavage falls from 0.43 to 0.16.

First: A6G G27C
Second: A6G G27A
The self-cleavage of the first is lower: 0.07 for the first, 0.14 for the second.

Compared with A6G G27U, A6G G36A is higher in self-cleavage: 0.08 for the first, 0.13 for the second.

First: A6G G36C
Second: A6G G36U
The self-cleavage of the first is higher: 0.09 for the first, 0.04 for the second.

First: A6G G29U
Second: A6G G29A
The self-cleavage of the first is higher: 0.09 for the first, 0.08 for the second.

Going from A6G G29C to A6U C13U, the self-cleavage rises from 0.07 to 0.11.

Compared with A6U C13G, A6U C13A is lower in self-cleavage: 0.28 for the first, 0.2 for the second.

First: A6U C18G
Second: A6U C18A
The self-cleavage of the first is lower: 0.24 for the first, 0.52 for the second.

Going from A6U C18U to A6U G19C, the self-cleavage falls from 0.93 to 0.45.

First: A6U G19U
Second: A6U G19A
The self-cleavage of the first is lower: 0.46 for the first, 0.64 for the second.

A6G U32G and A6G U32A are the same in self-cleavage: 0.07 for the first, 0.07 for the second.

In the case of A6G U32C, the self-cleavage is reported as 0.07.
